Drawing on PMC5702849, “A Novel Halotolerant Thermoalkaliphilic Esterase from Marine Bacterium Erythrobacter seohaensis SW-135” (Frontiers in Microbiology, 2017), this text covers Km for 1 protein.

Substrate in this data set: CCCC(=O)Oc1ccc([N+](=O)[O-])cc1
As to the kind of experiment: purified protein. Type of data set: biochemical, Qipengyuania seohaensis. The conditions noted are these: standard assay: 50 mM CHES pH 10.0, 40 °C, 0.05-4.0 mM substrate.

What is called Km is the substrate concentration at which the rate is half of its maximum.

B1: E69 (Qipengyuania seohaensis) (protein)
chain: MRDHGERFVVEAEERRTVSIERTNLGGVNIAWVSPSDKVPSSDGPLIFNLHDGGFALNDGDAALYTAVSFAELQQLDSVSVDYRLTPQHPYPAALEDAVAAYAVIKRKMPGRPIVVYGLSAGGGLGAAFLLKVKQLGLPMPEAAVLNSPWSDVSMNSDTLATLDCYDPLLGGSRPTLKPLANSYAAGADPQDPLVSPVYGDWEGVDVPVLLISGTRDVMLGDTVRLHRAMWRAGVPAELIVNEGMWHAFSVEPEFEAMIADSARFIRHISAKED
notes: expressed in E. coli BL21 (DE3) from pSMT3 as N-terminal His6-SUMO fusion, tag cleaved with ULP1 and removed; about 30 kDa on SDS-PAGE
Consider B1, for which the Km came out at 2200 ± 300 µM.
